# Results: PMC6701106
# Positions of bridges follow the written chain, without caps; N, C: chain ends. No end group written: not given here.
# Biological target: mAb3F3 (mouse)
# Assay: SPR; Biacore T200; antibodies injected for 60 s at 10 μl/min in the active flow cell; BSA conjugated peptide antigens flowed at 1.25 to 20 nM
Binder,Kd,koff,kon
"CGLRSFTRQARVVGGTDADEGEWPC (disulfide 1-25; also: conjugated to BSA) [BSA conjugated Mat-Loop (human Prss14/ST14 aa604-627 plus C-terminal cysteine, circular 25mer)]",5.33 nM,0.00342 s⁻¹,641000 M⁻¹ s⁻¹
"CGLRSFTRQARVVGGTDADEGEWP [Mat-Linear (human Prss14/ST14 aa604-627, linear 24mer)]",406 nM,0.0105 s⁻¹,25900 M⁻¹ s⁻¹
